The values below are quoted from earlier work in patent publication US20240247069A1, “FGFR3 BINDING MOLECULES AND METHODS OF USE THEREOF” (Regeneron Pharmaceuticals, Inc., priority 2023, published 2024).

Read-outs that look alike come from different tables or passages of the source.

For the data set, the system named is FGFR3.
[1] abbreviates: Table T-3, exemplary FGFR3 D3 binding sequences from cited PCT publications.
The mark [2] stands for this setting: literature antibodies, sequences from cited PCT publications.

B1: KE94: anti-FGFR3 IIIb and IIIc antibody of WO 2022/040560 A1; VH SEQ ID NO:82, VL SEQ ID NO:83 (antibody, V domains shown)
VH: QVQLQQSGAELVRPGASVTLSCKASGSTFTDFEIHWVKQTPVHGLEWIGAIDPETGGTAYNQKFKGKAILTAVKSSSTAYMGLRSLTSEDSAVYYCTRNYDGYSRTMDYWGQGTSVTVSS
VL: NIMMTQSPSSLAVSAGEKVTMSCKSSQSVLYSSNQKNYLAWYQQKPGQSPKLLIYWASTRESGVPDRFTGSGSGTDFSLSISSVQTEDLAVYYCHQYLSSYTFGGGTRLEMK
B1: the Activity result was “Antagonistic” under setting [1] and “Antagonistic” under setting [2].

B2: MS-Pro-29: anti-FGFR3 Ig-like domain 3 antibody of WO 2002/102972 A2; VH SEQ ID NO:40, VL SEQ ID NO:41 (antibody, V domains shown)
VH: QVQLVQSGAEVKKPGASVKVSCKASGYTFTSYYMHWVRQAPGQGLEWMGWINPNSGGTNYAQKFQGRVTMTRDTSISTAYMELSSLRSEDTAVYYCARTWQYSYFYYLDGGYYFDIWGQGTLVTVSS
VL: DIVLTQSPATLSLSPGERATLSCRASQSVSSSYLAWYQQKPGQAPRLLIYGASSRATGVPARFSGSGSGTDFTLTISSLEPEDFATYYCQQTNNAPVTFGQGTKVEIKRT
On to B2, for which the Activity entry reads like this: under setting [1], “Antagonistic”; under setting [2], “Antagonistic”.

B3: FGA0007: anti-FGFR3 (S249C mutant) antibody of WO 2021/010326 A1; VH SEQ ID NO:88, VL SEQ ID NO:89 (antibody, V domains shown)
VH: QSVEESGGRLVTPGTPLTLTCTVSGFSLSSYPMSWVRQAPGKGLEWIGIISSSGRTYYASWAKGRFTISKASSTTAALKMTSLTTEDTATYFCARGGVYKYDDYGDYVLNLWGRGTLVTVSS
VL: AIEMTQTPFSVSAAVGGTVTINCQASENIYSNLAWYQQKPGQPPKLLIYAASYLASGVPSRFKGSGSGTDYTLTISGVQCADAATYYCQCTLYSSTYGVAFGGGTEVVVK
For the molecule B3, the Activity result under setting [2] is “Antagonistic”.

B4: MS-Pro-28: anti-FGFR3 Ig-like domain 3 antibody of WO 2002/102972 A2; VH SEQ ID NO:38, VL SEQ ID NO:39 (antibody, V domains shown)
VH: QVQLVQSGAEVKKPGSSVKVSCKASGGTFSSYAISWVRQAPGQGLEWMGGIIPIFGTANYAQKFQGRVTITADESSTAYMELSSLRSEDTAVYYCARGGGWVSHGYYYLFDLWGQGTLVTVSS
VL: DIQMTQSPSSLSASVGDRVTITCRASQGISSYLAWYQQKPGKAPKLLIYAASSLQSGVPSRFSGSGSGTDFTLTISSLQPEDFAVYYCFQYGSIPPTFGQGTKVEIKRT
With B4, the Activity entry by setting is: under setting [1], “Antagonistic”; under setting [2], “Antagonistic”.

B5: KE35: anti-FGFR3 IIIb and IIIc antibody of WO 2022/040560 A1; VH SEQ ID NO:74, VL SEQ ID NO:75 (antibody, V domains shown)
VH: EVQLQQSGPELVKPGASVKMSCKASGYTFTDYNMHWVKQSHGKSLEWIGYINPNNGGTRYNQKFKGKATLTVNKSSSTAYMELRSLTSEDSAVYYCARERDYDGAMDYWGQGTSVTVSS
VL: DIQMTQSPSSLSASLGGKVTITCKASQDINKFIAWYQHKPGKGPRLLIHYTSTLQPGIPSRFSGSGSGRDYSFSISNLEPEDIATYYCLQYDNLLWTFGGGTKLEIK
For the molecule B5, the Activity entry is “Antagonistic” under setting [1] and “Antagonistic” under setting [2].

B6: KE42: anti-FGFR3 IIIb and IIIc antibody of WO 2022/040560 A1; VH SEQ ID NO:76, VL SEQ ID NO:77 (antibody, V domains shown)
VH: EVQLQQSGPELVKPGASVKMSCKASGYTFTDYNMHWVKQSHGKSLQWIGYINPNNGGTNYNQNFKDKATLTVNKSSTTAYMELRSLTSEDSAVYYCARERDYDGSMDFWGQGTSVTVSS
VL: DIQMTQSPSSLSASLGGKVTITCKASQDINKFIAWYQHKPGKGPRLLIHYTSTLQPGIPSRFSGSGSGRDYSFSISNLEPEDIATYFCLQYDNLLWTFGGGTKLEIK
With B6, the Activity entry runs as follows: under setting [1], “Antagonistic”; under setting [2], “Antagonistic”.

B7: FGA0002: anti-FGFR3 (S249C mutant) antibody of WO 2021/010326 A1; VH SEQ ID NO:84, VL SEQ ID NO:85 (antibody, V domains shown)
VH: QELVESGGGLVQPGGSLKLSCKASGIDFSSYGISWVRQAPGKGLEWIAYIVPGFGIRNYANSVKGRFTISSDNAQNTVFLQMTSLTASDTATYFCARVPQYASSSGYYLPFNLWGPGTLVTVSS
VL: ALVMTQTPSPVSAAVGGTVTINCQASEDIYYNLAWFQQKPGQPPKLLIYRASTLASGVPSRFSGSGSGTEFTLTISDVQCDDAATYYCLGVYTYISADGNAFGGGTEVVVK
B7: the Activity result under setting [2] is given as “Antagonistic”.

B8: KC18: anti-FGFR3 IIIb and IIIc antibody of WO 2022/040560 A1; VH SEQ ID NO:72, VL SEQ ID NO:73 (antibody, V domains shown)
VH: QVQLQQSGAELVRPGASVTLSCKASGDTFTDFEIHWVKQTPVHGLEWIGDIDPETGGTAYNQKFRGRAMLTADRSSSTAYMELRSLTSEDSAVYYCTRTYDGYPYAMDYWGQGTSVTVSS
VL: DIVMSQSPSSLAVSVGEKVTMSCKSSQSLLYSNNQKNYLAWYQQKPGQSPKLLIYWASTRESGVPDRFTGSGSGTDFTLTISSVKAEDLAVYYCQQYYSYRTFGGGTKLEIK
In the case of B8, the Activity entry runs as follows: under setting [1], “Antagonistic”; under setting [2], “Antagonistic”.

B9: KE63: anti-FGFR3 IIIb and IIIc antibody of WO 2022/040560 A1; VH SEQ ID NO:80, VL SEQ ID NO:81 (antibody, V domains shown)
VH: QVQLQQSGAELVRPGASVTLSCKASGSTFSDFEIHWVKQTPVHGLEWIGGIDPETGGTAYNQKFKGKAILTADRSSSTAYMELRSLTSEDSAVYYCTRNYDGYSQTMDYWGQGTSVTVSS
VL: NIMMTQSPSSLAVSAGEKVTMSCKSSQSVLYSSNQKNYLAWYQQKPGQSPKLLIYWASTRESGVPDRFTGSGSGTDFTLTISSVQAEDLAVYYCHQYLSSYTFGGGTKLEMK
As for B9, the Activity entry is recorded as “Antagonistic” under setting [1] and “Antagonistic” under setting [2].

B10: KE58: anti-FGFR3 IIIb and IIIc antibody of WO 2022/040560 A1; VH SEQ ID NO:78, VL SEQ ID NO:79 (antibody, V domains shown)
VH: EVQLQQSGPDLVKPGASVKISCKASGYTVTDYYMNWVKQSHGKSLEWIGDINPNNGVTTYNQKFKDKATLTVDKSSSTAYMELRSLTSEDSAVYYCAREEDFDGFDYWGQGTTLTVSS
VL: DIVMTQSHKFMSTSVGDRVSITCKASQDVSTGVAWYQQKPGQSPQLLIYWASTRHTGVPDRFTGSGSGTDYILTIRSVQAEDLALYYCQQHYSTPLTFGAGTKLELK
Turning to B10, the Activity entry is, setting by setting: under setting [1], “Antagonistic”; under setting [2], “Antagonistic”.

B11: MS-Pro-11: anti-FGFR3 Ig-like domain 3 antibody of WO 2002/102972 A2; VH SEQ ID NO:30, VL SEQ ID NO:31 (antibody, V domains shown)
VH: QVQLVQSGAEVKKPGASVKVSCKASGYTFTSYYMHWVRQAPGQGLEWMGWINPNSGGTNYAQKFQGRVTMTRDTSISTAYMELSSLRSEDTAVYYCARYYGSSLYHYVFGGFIDYWGQGTLVTVSS
VL: DIALTQPASVSGSPGQSITISCTGTSSDVGGYNYVSYQQHPGKAPKLMIYDVSNRPSGVSNRFSGSKSGNTASLTISGLQAEDEADYYCQSHHFYEVFGGGTKLTVLGQ
As to B11, the Activity entry is reported as “Antagonistic” under setting [1] and “Antagonistic” under setting [2].

B12: MS-Pro-26: anti-FGFR3 Ig-like domain 3 antibody of WO 2002/102972 A2; VH SEQ ID NO:36, VL SEQ ID NO:37 (antibody, V domains shown)
VH: QVQLVQSGAEVKKPGASVKVSCKASGYTFTSYYMHWVRQAPGQGLEWMGWINPNSGGTNYAQKFQGRVTMTRDTSISTAYMELSSLRSEDTAVYYCARGYWYAYFTYINYGYFDNWGQGTLVTVSS
VL: DIALTQPASVSGSPGQSITISCTGTSSDVGGYNYVSWYQQHPGKAPKLMIYDVSNRPSGVSNRFSGSKSGNTASLTISGLQAEDEADYYCQSYDNNSDWFGGGTKLTVLGQ
With B12, the Activity result by setting is: under setting [1], “Antagonistic”; under setting [2], “Antagonistic”.

B13: MS-Pro-2: anti-FGFR3 Ig-like domain 2 antibody of WO 2002/102972 A2; VH SEQ ID NO:24, VL SEQ ID NO:25 (antibody, V domains shown)
VH: QVQLVQSGAEVKKPGASVKVSCKASGYTFTSYYMHWVRQAPGQGLEWMGWINPNSGGTNYAQKFQGRVTMTRDTSISTAYMELSSLRSEDTAVYYCARDFLGYEFDYWGQGTLVTVSS
VL: DIELTQPPSVSVAPGQTARISCSGDALGDKYASWYQQKPGQAPVLVIYDDSDRPSGIPERFSGSNSGNTATLTISGTQAEDEADYYCQSYDYSADYVFGGGTKLTVLGQ
Regarding B13, the Activity entry under setting [2] is recorded as “Antagonistic”.

B14: FGA0005: anti-FGFR3 (S249C mutant) antibody of WO 2021/010326 A1; VH SEQ ID NO:86, VL SEQ ID NO:87 (antibody, V domains shown)
VH: QSLEESGGRLVTPGTPLTLTCTASGFSLSTYWICWVRQAPGEGLEWIGYISSSGNTYYASWAKGRFTISKTSSTTVDLKMTSLTTEDTATYFCGGHNSDYITGWALDPWGPGTLVTVSS
VL: AAVLTQTASPMSAAVGGTVTINCQSSKSVYRDKWLSWFQQKPGQPPKLLIYGASNLASGVSSRFKGSGSGTQFTLTISDVQCDDAATYYCLGGYSDNSEDAFGGGTEVVVK
As to B14, the Activity result under setting [2] is recorded as “Antagonistic”.
